Measured values taken from patent EP4755449A2 (CHUGAI SEIYAKU KABUSHIKI KAISHA, dated 2026).
Substitutions are numbered along the chain they refer to. Names and notes keep the numbering of the source. Values belong to the binder of their own block, whether it stands above or below them.

Experiments:
[1] = target: T1, human Fc gamma RIIaR extracellular domain, His-tagged (human, UniProt P12318 34-217); assay: SPR 25C
T1 construct: also called FcgRIIaR; human Fc gamma RIIa (type R)
T1 chain: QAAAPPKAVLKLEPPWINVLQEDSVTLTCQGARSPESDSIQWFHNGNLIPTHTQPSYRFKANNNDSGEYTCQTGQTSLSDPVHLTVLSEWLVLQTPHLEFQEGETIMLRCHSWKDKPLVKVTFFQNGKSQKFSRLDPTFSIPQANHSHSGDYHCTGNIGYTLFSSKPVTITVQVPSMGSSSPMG

[2] = target: T2, human Fc gamma RIIIaV extracellular domain, His-tagged (human, UniProt P08637 17-208); assay: SPR 25C
T2 construct: also called FcgRIIIaV

human latent myostatin [3] = target: T3, human latent myostatin (human, UniProt O14793 25-266; O14793 267-375); assay: SPR, dissociation phase at pH5.8
T3 construct: non-covalent complex of two propeptides and the mature homodimer; also called human myostatin latent form
T3 sequence 1: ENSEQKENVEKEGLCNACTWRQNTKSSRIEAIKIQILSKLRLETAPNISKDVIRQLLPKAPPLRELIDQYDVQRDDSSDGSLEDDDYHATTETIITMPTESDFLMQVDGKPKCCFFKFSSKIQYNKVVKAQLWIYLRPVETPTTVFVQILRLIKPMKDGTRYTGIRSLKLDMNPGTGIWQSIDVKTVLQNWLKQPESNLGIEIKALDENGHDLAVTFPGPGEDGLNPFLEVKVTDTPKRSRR
T3 sequence 2: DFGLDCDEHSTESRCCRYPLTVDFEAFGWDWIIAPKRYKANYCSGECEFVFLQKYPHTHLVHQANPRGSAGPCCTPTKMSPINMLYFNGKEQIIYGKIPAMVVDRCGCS

human latent myostatin [4] = target: T3, human latent myostatin; assay: SPR, dissociation phase at pH5.8; remark: listed apart in the source
[5] = target: T4, cynomolgus monkey latent myostatin (cynomolgus monkey, UniProt Q95J86 25-266; Q95J86 267-375, limits assumed); assay: SPR 37C pH5.8; pH 5.8
T4 construct: also called cyno latent myostatin
T4 sequence 1: T3 sequence 1 with V52A
T4 sequence 2: T3 sequence 2

human latent myostatin [6] = target: T3, human latent myostatin; assay: SPR 37C pH7.4
mouse latent myostatin = target: T5, mouse latent myostatin (mouse, UniProt O08689 26-267; O08689 268-376); assay: SPR 37C pH7.4
T5 sequence 1: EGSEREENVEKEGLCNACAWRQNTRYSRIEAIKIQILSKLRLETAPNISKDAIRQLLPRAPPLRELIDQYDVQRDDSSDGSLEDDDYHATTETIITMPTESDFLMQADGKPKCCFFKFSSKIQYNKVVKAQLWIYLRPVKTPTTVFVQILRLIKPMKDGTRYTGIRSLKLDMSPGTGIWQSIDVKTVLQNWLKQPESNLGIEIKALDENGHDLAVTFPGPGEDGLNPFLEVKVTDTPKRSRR
T5 sequence 2: T3 sequence 2

[7] = target: T4, cynomolgus monkey latent myostatin; assay: SPR 37C pH7.4; pH 7.4
[8] = target: T4, cynomolgus monkey latent myostatin; assay: SPR 37C
GST-hMSTN 81-180aa = target: T6, GST-hMSTN 81-180aa (human, UniProt A1C2U3 81-180 (Pongo pygmaeus entry)); assay: Western blot
T6 construct: not shown: GST tag of pGEX4.1 vector
T6 sequence: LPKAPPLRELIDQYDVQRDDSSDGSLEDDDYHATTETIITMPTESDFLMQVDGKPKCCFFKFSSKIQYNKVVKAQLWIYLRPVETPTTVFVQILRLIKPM

GST-hMSTN 141-241aa = target: T7, GST-hMSTN 141-241aa (human, UniProt A1C2U3 141-241 (Pongo pygmaeus entry)); assay: Western blot
T7 construct: not shown: GST tag of pGEX4.1 vector
T7 sequence: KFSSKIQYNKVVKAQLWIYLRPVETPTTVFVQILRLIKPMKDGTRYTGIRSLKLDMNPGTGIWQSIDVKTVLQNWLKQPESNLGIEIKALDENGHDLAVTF

GST-hMSTN 101-200aa = target: T8, GST-hMSTN 101-200aa (human, UniProt A1C2U3 101-200 (Pongo pygmaeus entry)); assay: Western blot
T8 construct: not shown: GST tag of pGEX4.1 vector
T8 sequence: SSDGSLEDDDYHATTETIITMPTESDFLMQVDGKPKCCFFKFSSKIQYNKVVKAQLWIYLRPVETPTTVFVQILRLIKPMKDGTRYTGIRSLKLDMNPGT

GST-hMSTN 61-160aa = target: T9, GST-hMSTN 61-160aa (human, UniProt O14793 61-160); assay: Western blot
T9 construct: not shown: GST tag of pGEX4.1 vector
T9 sequence: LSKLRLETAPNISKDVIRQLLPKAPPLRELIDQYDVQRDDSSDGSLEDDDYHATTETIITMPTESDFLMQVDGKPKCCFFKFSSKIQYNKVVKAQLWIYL

GST-hMSTN 121-220aa = target: T10, GST-hMSTN 121-220aa (human, UniProt A1C2U3 121-220 (Pongo pygmaeus entry)); assay: Western blot
T10 construct: not shown: GST tag of pGEX4.1 vector
T10 sequence: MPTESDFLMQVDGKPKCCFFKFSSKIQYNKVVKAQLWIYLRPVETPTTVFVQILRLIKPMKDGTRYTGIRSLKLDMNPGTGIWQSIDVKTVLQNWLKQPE

[9] = target: T11, human Fc gamma RIIb on MDCK cells (human, UniProt P31994 43-310); assay: cell-based or functional assay
T11 sequence (looked up): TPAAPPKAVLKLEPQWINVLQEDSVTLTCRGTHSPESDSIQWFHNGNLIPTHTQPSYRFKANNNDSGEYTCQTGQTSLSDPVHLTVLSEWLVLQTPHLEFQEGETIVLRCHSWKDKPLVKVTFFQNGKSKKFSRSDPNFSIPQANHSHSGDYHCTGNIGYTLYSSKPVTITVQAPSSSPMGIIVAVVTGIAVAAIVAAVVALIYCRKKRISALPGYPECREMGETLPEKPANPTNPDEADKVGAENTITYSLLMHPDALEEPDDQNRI

[10] = target: T12, human Fc gamma RIIaH extracellular domain, His-tagged (human, UniProt P12318 34-217); assay: SPR 25C
T12 construct: also called FcgRIIaH; human Fc gamma RIIa (type H)
T12 sequence: T1 chain with R134H

[11] = target: T13, human Fc gamma RIIb extracellular domain, His-tagged (human, UniProt P31994 43-217); assay: SPR 25C
T13 construct: also called FcgRIIb
T13 sequence: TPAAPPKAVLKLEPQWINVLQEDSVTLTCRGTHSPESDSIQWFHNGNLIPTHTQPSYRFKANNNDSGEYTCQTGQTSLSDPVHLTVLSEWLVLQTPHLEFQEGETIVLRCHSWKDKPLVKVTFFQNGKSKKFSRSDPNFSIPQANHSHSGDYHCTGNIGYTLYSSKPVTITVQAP

[12] = target: T14, cyno Fc gamma RIIIaS extracellular domain, His-tagged (cynomolgus monkey, UniProt Q8SPW2 21-206 at identity 1.00)); assay: SPR 25C
T14 construct: also called cynoFcgRIIIaS
T14 chain: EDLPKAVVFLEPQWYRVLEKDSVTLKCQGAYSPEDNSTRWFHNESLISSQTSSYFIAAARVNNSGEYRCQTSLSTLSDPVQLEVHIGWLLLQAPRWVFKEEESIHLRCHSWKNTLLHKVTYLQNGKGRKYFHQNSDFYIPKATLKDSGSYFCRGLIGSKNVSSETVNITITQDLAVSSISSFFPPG

T2 sequence (P08637 17-208 F176V): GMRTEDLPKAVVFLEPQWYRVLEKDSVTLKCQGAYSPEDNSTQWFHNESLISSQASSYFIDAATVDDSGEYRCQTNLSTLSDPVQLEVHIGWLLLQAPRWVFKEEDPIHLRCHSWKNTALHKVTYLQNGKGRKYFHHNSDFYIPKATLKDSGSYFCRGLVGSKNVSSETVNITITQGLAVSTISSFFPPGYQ

B1: GpH7-B3 G237D/GpL16-k0 (antibody, human IgG1, kappa)
heavy: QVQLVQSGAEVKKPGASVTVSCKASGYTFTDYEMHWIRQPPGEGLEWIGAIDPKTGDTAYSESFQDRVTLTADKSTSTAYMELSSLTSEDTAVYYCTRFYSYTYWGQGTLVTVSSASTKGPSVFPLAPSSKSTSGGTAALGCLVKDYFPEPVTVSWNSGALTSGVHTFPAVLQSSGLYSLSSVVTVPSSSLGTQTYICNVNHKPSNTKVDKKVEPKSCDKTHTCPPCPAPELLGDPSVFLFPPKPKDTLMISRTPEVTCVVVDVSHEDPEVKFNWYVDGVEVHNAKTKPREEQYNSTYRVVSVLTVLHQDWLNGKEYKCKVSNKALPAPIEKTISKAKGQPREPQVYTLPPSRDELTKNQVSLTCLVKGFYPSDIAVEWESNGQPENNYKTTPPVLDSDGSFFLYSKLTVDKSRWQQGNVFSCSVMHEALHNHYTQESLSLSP
light: DIVMTQSPLSLPVTPGEPASISCQASESLVHSNRNTYLHWYLQKPGQSPQLLIYKVSNRFSGVPDRFSGSGSGTDFTLKISRVEAEDVGVYYCSQNTHVPPTFGQGTKVEIERTVAAPSVFIFPPSDEQLKSGTASVVCLLNNFYPREAKVQWKVDNALQSGNSQESVTEQDSKDSTYSLSSTLTLSKADYEKHKVYACEVTHQGLSSPVTKSFNRGEC
notes: copies: 2 + 2
relative binding [1]: 0 parent B3=100 | relative binding [2]: 0 parent B3=100

B2: Ab002 (M103205H001/M103202L000) (antibody, V domains shown)
VH: QVTLKESGPVLVKPTETLTLTCTVSGIDLSHYDISWVRQAPGKGLEWVGIISYAGSTYYASWAKGRLTISKDTSKNQVVLTMTNMDPVDTATYYCARGVPAYSTGGDLWGQGTLVTVSS
VL: DIVMTQSPATLSLSPGERATLSCQSSQSVYDNNWLSWFQQKPGQPPKLLIYWASTLASGVPSRFSGSGSGTDFTLTISSLQPEDAATYYCAGGYGGGLYAFGQGTKVEIKR
notes: variant of MS1032LO00-SG1
koff (human latent myostatin [3]): 0.00609 s⁻¹ | fold faster dissociation rate at pH5.8 than Ab001 (human latent myostatin [4]): 200 fold

B5: MS103240H795-TT14/M103202L1045-SK1 (antibody, human IgG1, kappa)
heavy: QVQLVESGGGLVQPGGSLRLSCAVSGIDLSHDDISWVRQAPGKGLEWVSIISYAGSTYYASWAKGRLTISKDTSKNQVVLTMTNMDPVDTATYYCARGVPAYSHGGDLWGQGTLVTVSSASTKGPSVFPLAPSSKSTSGGTAALGCLVKDYFPEPVTVSWNSGALTSGVHTFPAVLQSSGLYSLSSVVTVPSSSLGTQTYICNVNHKPSNTKVDKKVEPKSCDKTHTCPPCPAPEYLGGDSVFLFPPKPKDVLMISRTPEVTCVVIDVSHEDPEVKFNWYVDGVEVHNAKTKPREEQYNSTYRVVSVLPVLHQDWLNGKEYKCKVSNKALPKPIEKTISKAKGQPREPQVYTLPPSREEMTKNQVSLTCLVKGFYPSDIAVEWESNGQPENNYKTTPPVLDSDGSFFLYSKLTVDKSRWQQGNVFSCSVMHEALHNHYTQKSLSLSP
light: DIVMTQSPATLSLSPGERATLSCTTSQSVYHENWLSWFQQKPGQPPKLLIYWASTLAYGVPSRFSGSGSGTDFTLTISSLQPEDAATYYCAGGYGGGRYAFGQGTKVEIKRTVAAPSVFIFPPSDEQLKSGTASVVCLLNNFYPREAKVQWKVDNALQSGNSQESVTEQDSKDSTYSLSSTLTLSKADYEKHKVYACEVTHQGLSSPVTKSFNRGEC
antigen fluorescence intensity inside cells (uptake of antigen-antibody complex) [9]: 7.5 fold of SG1

Other lines, results leading:

Kd [5]: 80.9 nM | Kd (human latent myostatin [6]): 0.329 nM | Kd (mouse latent myostatin): 0.272 nM | Kd [7]: 0.354 nM | ratio of KD at pH 5.8/pH7.4 [8]: 229
B3: MS_M103205H1186-SG1/M103202L889-SK1 (antibody, human IgG1, kappa, V domains shown)
VH: B2 VH with Y32D, S56K, T57K, T104H
VL: B2 VL with Q24T, D31H, N32A, S58Y, L98R
notes: also called MS1032LO18-SG1

binding result (GST-hMSTN 81-180aa): no binding | binding result (GST-hMSTN 141-241aa): no binding | binding result (GST-hMSTN 101-200aa): no binding | binding result (GST-hMSTN 61-160aa): no binding | binding result (GST-hMSTN 121-220aa): no binding
B4: MST1538 (antibody, human IgG1, kappa, V domains shown)
VH: QSLEESGGGLVKPGGTLTLTCKASGIDFSSYYYMCWVRQAPGKGLEWIACIYAGISGSTYYASWAKGRFTISKTSSTTVTLQMTSLTAADTATYFCARDPYHFDYGSLWGPGTLVTVSS
VL: ALVMTQTPASVSAAVGGTVTINCQASQSVYGGNELSWYQQEPGQPPKLLIYSASKLASGVPSRFKGSGSGTQFTLTISGVQCDDAAAYYCAGYRTYSDDDNAFGGGTKVEIKR

antigen antibody uptake into the cells [9]: 36 fold of SG1
B6: MS103240H795-TT33/M103202L1045-SK1 (antibody, human IgG1, kappa)
heavy: B5 heavy with Q313R, D415K
light: B5 light

binding result [10]: binds | binding result [11]: binds | binding result [12]: binds
B7: M103205H795-MY009/M103202L889-SK1 (antibody, human IgG1, kappa)
heavy: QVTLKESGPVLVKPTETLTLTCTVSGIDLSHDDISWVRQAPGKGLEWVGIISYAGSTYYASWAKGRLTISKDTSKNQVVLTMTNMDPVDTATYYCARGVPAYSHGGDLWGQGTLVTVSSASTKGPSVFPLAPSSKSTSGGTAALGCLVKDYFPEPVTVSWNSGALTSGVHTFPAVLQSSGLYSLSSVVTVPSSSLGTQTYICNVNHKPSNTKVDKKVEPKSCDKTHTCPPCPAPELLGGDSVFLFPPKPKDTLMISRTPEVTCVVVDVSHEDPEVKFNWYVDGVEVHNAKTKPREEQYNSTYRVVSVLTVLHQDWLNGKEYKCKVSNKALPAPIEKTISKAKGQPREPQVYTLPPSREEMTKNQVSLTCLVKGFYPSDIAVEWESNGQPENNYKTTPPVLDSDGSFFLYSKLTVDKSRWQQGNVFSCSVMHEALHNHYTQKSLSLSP
light: B5 light with T25S, E32A
notes: SG1 with P238D (EU); also called MS1032LO06-MY009; copies: 2 + 2

binding result (GST-hMSTN 81-180aa): no binding | binding result (GST-hMSTN 141-241aa): no binding | binding result (GST-hMSTN 101-200aa): no binding | binding result (GST-hMSTN 61-160aa): no binding | binding result (GST-hMSTN 121-220aa): no binding
B8: MST1572 (antibody, human IgG1, kappa, V domains shown)
VH: QSVEESGGRLVTPGTPLTLTCTVSGFSLSSYAMSWVRQAPGKGLEWIGIIYGVGSTYYASWAKGRFTISKTSTTVDLKIASPTTEDTATYFCARDDYGWGYTNLWGPGTLVTVSS
VL: QVLTQTPSSVSAAVGGTVTINCQSSQSVYNNNYLAWFQQKPGQPPKLLIYDASKLASGVPSRFKGSGSGTQFTLTISGVQCDDAATYYCQGSYYSSGWYRAFGGGTKVEIKR
